Source: the Human Domainome abundance scans (Beltran et al. 2025)
± gives the uncertainty stated by the source.

B1: FERM and PDZ domain-containing protein 4, residues 75 to 154; numbered along this chain, Q14CM0 (parent)
chain: APRKVEMRRDPVLGFGFVAGSEKPVVVRSVTPGGPSEGKLIPGDQIVMINDEPVSAAPRERVIDLVRSCKESILLTVIQP

Variants of: B1
Assay: abundance fitness (aPCA) (normalised: wild type 0, dead -1); higher = more abundant; growth selection in yeast, the domain comes from the species named
Conditions: Homo sapiens

Variant	abundance fitness
T31H	-0.016 ± 0.029
T31I	-0.175 ± 0.03
T31K	-0.012 ± 0.029
T31L	-0.168 ± 0.023
T31M	-0.067 ± 0.032
T31N	-0.055 ± 0.029
T31P	-0.59 ± 0.036
T31Q	-0.029 ± 0.028
T31R	-0.034 ± 0.023
T31S	-0.001 ± 0.023
T31V	-0.058 ± 0.025
T31W	-0.196 ± 0.032
T31Y	-0.117 ± 0.031
P32A	-0.029 ± 0.026
P32D	-0.075 ± 0.032
P32E	-0.037 ± 0.034
P32F	-0.206 ± 0.033
P32G	-0.098 ± 0.028
P32H	-0.046 ± 0.028
P32I	-0.08 ± 0.031
P32K	-0.027 ± 0.029
P32L	-0.083 ± 0.023
P32M	-0.039 ± 0.031
P32N	-0.058 ± 0.029

Variant	abundance fitness
P32Q	-0.018 ± 0.03
P32R	-0.05 ± 0.024
P32S	-0.032 ± 0.024
P32T	-0.036 ± 0.026
P32V	-0.051 ± 0.025
P32W	-0.247 ± 0.037
P32Y	-0.136 ± 0.031
G33A	-0.055 ± 0.025
G33D	-0.024 ± 0.039
G33E	-0.112 ± 0.03
G33F	-0.116 ± 0.046
G33H	-0.101 ± 0.045
G33I	-0.332 ± 0.055
G33K	-0.064 ± 0.033
G33L	-0.104 ± 0.024
G33M	-0.124 ± 0.033
G33N	-0.089 ± 0.048
G33P	-0.871 ± 0.055
G33Q	-0.122 ± 0.034
G33R	-0.104 ± 0.022
G33S	-0.088 ± 0.025
G33T	-0.157 ± 0.031
G33V	-0.328 ± 0.027
G33W	-0.228 ± 0.029

Variant	abundance fitness
G34A	-0.157 ± 0.025
G34C	-0.552 ± 0.041
G34D	-0.84 ± 0.061
G34E	-0.999 ± 0.065
G34F	-0.765 ± 0.081
G34H	-0.543 ± 0.077
G34I	-0.957 ± 0.13
G34K	-1.02 ± 0.084
G34L	-0.595 ± 0.032
G34M	-0.692 ± 0.051
G34N	-1.07 ± 0.13
G34P	-0.92 ± 0.058
G34Q	-0.802 ± 0.054
G34R	-0.954 ± 0.039
G34S	-0.001 ± 0.025
G34T	-0.066 ± 0.03
G34V	-0.962 ± 0.042
G34W	-1.1 ± 0.063
G34Y	-0.867 ± 0.093
P35A	-0.202 ± 0.028
P35C	-0.435 ± 0.05
P35D	-0.737 ± 0.07
P35E	-0.35 ± 0.037
P35G	-0.661 ± 0.032

Variant	abundance fitness
P35I	-0.622 ± 0.088
P35K	-0.59 ± 0.047
P35L	-0.857 ± 0.044
P35M	-0.355 ± 0.038
P35N	-0.213 ± 0.053
P35Q	-0.33 ± 0.038
P35R	-0.486 ± 0.025
P35S	-0.394 ± 0.033
P35T	-0.543 ± 0.039
P35V	-0.331 ± 0.028
P35W	-1.08 ± 0.074
P35Y	-0.708 ± 0.091
S36A	0.032 ± 0.023
S36C	-0.051 ± 0.032
S36D	-0.826 ± 0.072
S36E	-0.866 ± 0.05
S36F	-0.742 ± 0.067
S36G	-0.05 ± 0.022
S36H	-0.741 ± 0.074
S36K	-1.1 ± 0.087
S36L	-0.867 ± 0.041
S36M	-0.567 ± 0.041
S36N	-0.606 ± 0.062
S36Q	-0.81 ± 0.052

Variant	abundance fitness
S36R	-1.07 ± 0.042
S36T	-0.477 ± 0.031
S36V	-0.668 ± 0.033
S36Y	-0.927 ± 0.096
E37C	-0.046 ± 0.033
E37D	-0.028 ± 0.035
E37F	-0.103 ± 0.038
E37G	-0.173 ± 0.021
E37H	-0.09 ± 0.045
E37I	-0.145 ± 0.046
E37K	-0.176 ± 0.033
E37L	-0.235 ± 0.026
E37M	-0.122 ± 0.032
E37N	-0.106 ± 0.045
E37P	-0.985 ± 0.059
E37Q	-0.034 ± 0.031
E37R	-0.211 ± 0.022
E37T	-0.126 ± 0.029
E37V	-0.057 ± 0.023
E37Y	-0.044 ± 0.041
G38C	-0.186 ± 0.03
G38D	-0.061 ± 0.031
G38E	-0.155 ± 0.026
G38F	-0.096 ± 0.041

Variant	abundance fitness
G38H	-0.045 ± 0.041
G38I	-0.651 ± 0.064
G38K	-0.105 ± 0.036
G38L	-0.21 ± 0.024
G38M	-0.185 ± 0.034
G38N	-0.078 ± 0.047
G38P	-0.54 ± 0.037
G38Q	-0.099 ± 0.032
G38S	-0.124 ± 0.023
G38T	-0.137 ± 0.03
G38V	-0.526 ± 0.026
G38W	-0.274 ± 0.026
G38Y	-0.142 ± 0.038
K39A	-0.079 ± 0.023
K39C	-0.036 ± 0.03
K39D	-0.546 ± 0.041
K39E	-0.135 ± 0.027
K39F	-0.036 ± 0.038
K39G	-0.264 ± 0.021
K39H	-0.028 ± 0.038
K39I	0.005 ± 0.036
K39L	0.005 ± 0.022
K39M	-0.045 ± 0.028
K39P	-0.679 ± 0.04

Variant	abundance fitness
K39Q	-0.032 ± 0.031
K39R	-0.03 ± 0.02
K39S	-0.119 ± 0.024
K39T	-0.201 ± 0.029
K39V	-0.06 ± 0.022
K39W	-0.145 ± 0.025
K39Y	-0.068 ± 0.035
L40A	-0.871 ± 0.039
L40D	-0.965 ± 0.079
L40E	-0.989 ± 0.054
L40F	-0.8 ± 0.069
L40G	-1.01 ± 0.034
L40H	-1.07 ± 0.12
L40I	-0.125 ± 0.045
L40M	-0.19 ± 0.029
L40N	-0.94 ± 0.087
L40P	-0.928 ± 0.059
L40R	-0.978 ± 0.035
L40S	-0.87 ± 0.037
L40T	-0.846 ± 0.055
L40V	-0.156 ± 0.022
L40W	-1.07 ± 0.046
L40Y	-1.02 ± 0.12
